Measured values: US20180100026A1
“And” between values parts separate entries of the source, which are not always exact repeats. Identical values can stand only once.

Columns and labels:
Assay in all cases: cell-based or functional assay
CD19 (human) = CD19 (human) (UniProt P15391)
[1] = biological target: anti-FITC CAR (FITC-E2 scFv, CD8 hinge and transmembrane region, 41BB and CD3 zeta) on human T cells
[2] = biological target: anti-FITC CAR with the 4-4-20 scFv (LV-EF1a-4-4-20-BBZ), on transduced human T cells
[3] = biological target: anti-FITC CAR with the 4D5Flu scFv (LV-EF1a-4D5Flu-BBZ), on transduced human T cells
[4] = biological target: anti-FITC CAR with the fully human FITC-E2 scFv (CD8 hinge, 41BB, CD3 zeta), on transduced human T cells
Sequence of anti-FITC CAR with the fully human FITC-E2 scFv (CD8 hinge, 41BB, CD3 zeta), on transduced human T cells (chain, as listed by the source limits assumed): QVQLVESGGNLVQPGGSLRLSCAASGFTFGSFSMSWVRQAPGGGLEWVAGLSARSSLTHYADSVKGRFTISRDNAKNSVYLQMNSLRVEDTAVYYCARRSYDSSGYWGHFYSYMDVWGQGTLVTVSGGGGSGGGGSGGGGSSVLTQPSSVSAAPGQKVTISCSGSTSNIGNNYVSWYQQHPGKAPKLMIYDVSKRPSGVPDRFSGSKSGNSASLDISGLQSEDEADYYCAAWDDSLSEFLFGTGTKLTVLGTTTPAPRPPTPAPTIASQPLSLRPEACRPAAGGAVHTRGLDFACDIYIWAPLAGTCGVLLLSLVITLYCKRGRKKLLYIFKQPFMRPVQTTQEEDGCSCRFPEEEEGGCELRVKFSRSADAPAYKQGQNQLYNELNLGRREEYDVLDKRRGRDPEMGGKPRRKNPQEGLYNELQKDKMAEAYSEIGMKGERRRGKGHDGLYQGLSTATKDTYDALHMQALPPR

[5] = biological target: anti-FITC CAR with the 4M5.3 scFv (LV-EF1a-4M5.3-BBZ), on transduced human T cells

Sequence of anti-FITC CAR (FITC-E2 scFv, CD8 hinge and transmembrane region, 41BB and CD3 zeta) on human T cells (chain, as listed by the source): as the sequence (chain, as listed by the source limits assumed) above
Sequence of CD19 (human) (P15391 20-556): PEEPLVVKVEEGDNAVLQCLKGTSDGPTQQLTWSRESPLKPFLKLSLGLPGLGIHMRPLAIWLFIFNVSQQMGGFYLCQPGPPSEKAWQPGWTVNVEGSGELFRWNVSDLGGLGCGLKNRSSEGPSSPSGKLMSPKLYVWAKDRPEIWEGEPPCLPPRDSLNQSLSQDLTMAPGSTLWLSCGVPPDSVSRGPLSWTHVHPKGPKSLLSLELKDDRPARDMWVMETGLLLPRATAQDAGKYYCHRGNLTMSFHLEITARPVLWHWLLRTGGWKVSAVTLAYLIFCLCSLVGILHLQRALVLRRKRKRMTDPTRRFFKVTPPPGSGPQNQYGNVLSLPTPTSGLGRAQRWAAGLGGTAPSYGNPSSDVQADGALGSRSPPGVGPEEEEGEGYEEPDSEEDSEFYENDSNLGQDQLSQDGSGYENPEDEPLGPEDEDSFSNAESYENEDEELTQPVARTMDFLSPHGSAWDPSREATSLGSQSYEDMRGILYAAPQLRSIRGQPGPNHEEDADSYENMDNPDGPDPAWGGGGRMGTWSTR

Q: Which Human IFN-g, CART19 + Nalm-6 (CD19 (human)) does the source give for “CART-19: second generation CD19 specific CAR with anti-CD19 scFv (clone FMC63), 41BB and CD3zeta, on human T cells” here?
A: 915 and 924 and 951

Q: What about the target cell lysis, CART19 + Nalm-6, E:T 0.04:1 (CD19 (human)) of the same substance?
A: 12.6 and 13

Q: What about the target cell lysis, CART19 + Nalm-6, E:T 0.2:1 (CD19 (human)) of the same substance?
A: 21.7 and 24.5

Q: And the target cell lysis, CART19 + Nalm-6, E:T printed as 1:01 (CD19 (human))?
A: 52 and 48

Q: And the target cell lysis, CART19 + Nalm-6, E:T printed as 5:01 (CD19 (human))?
A: 75.2 and 73.3

Q: What about the target cell lysis, CART19 + Nalm-6, E:T printed as 15:01 (CD19 (human)) of the same substance?
A: 87.3 and 88.3

Q: Which results are given for “anti-CD19 AB-FITC switch (anti-CD19 Fab, clone FMC63, FITC conjugated at light chain glycine 68 and heavy chain serine 74)”?
A: % cytotoxicity, anti-FITC CAR-T + NALM-6 + 10 pM AB-FITC, with 0 nM free fluorescein [1]: 54.8%; % cytotoxicity, anti-FITC CAR-T + NALM-6 + 10 pM AB-FITC, with 1 nM free fluorescein [1]: 57.1% and 58.1%; % cytotoxicity, anti-FITC CAR-T + NALM-6 + 10 pM AB-FITC, with 10 nM free fluorescein [1]: 56.2% and 56%; % cytotoxicity, anti-FITC CAR-T + NALM-6 + 10 pM AB-FITC, with 100 nM free fluorescein [1]: 55.7%; % cytotoxicity, anti-FITC CAR-T + NALM-6 + 10 pM AB-FITC, with 1000 nM free fluorescein [1]: 50.4% and 50.9%; % cytotoxicity, anti-FITC CAR-T + NALM-6 + 10 pM AB-FITC, with 10000 nM free fluorescein [1]: 27.4% and 31.6%

Q: With “anti-CD19 AB-FITC switch (anti-human CD19 Fab, clone FMC63, FITC conjugated at light chain glycine 68 and heavy chain serine 74)” as the substance, how does the % cytotoxicity of CD19+ target cells, FIG. 68A, switch at 0.01 pM [2] read?
A: 0.526%

Q: What about the % cytotoxicity of CD19+ target cells, FIG. 68A, switch at 0.1 pM [2] of the same substance?
A: 32.8% and 33.3%

Q: What about the % cytotoxicity of CD19+ target cells, FIG. 68A, switch at 1 pM [2] of the same substance?
A: 52.3%

Q: And the % cytotoxicity of CD19+ target cells, FIG. 68A, switch at 10 pM [2]?
A: 64.9% and 66.1%

Q: What about the % cytotoxicity of CD19+ target cells, FIG. 68A, switch at 100 pM [2] of the same substance?
A: 71.7% and 65.6%

Q: What about the % cytotoxicity of CD19+ target cells, FIG. 68A, switch at 1000 pM [2] of the same substance?
A: 67.8%

Q: And the % cytotoxicity of CD19+ target cells, FIG. 68A, switch at 10000 pM [2]?
A: 74.1% and 71.5%

Q: And the % cytotoxicity of CD19+ target cells, FIG. 68A, switch at 1.00E-03 pM [2]?
A: 4.97%

Q: What about the % cytotoxicity of CD19+ target cells, FIG. 68B, switch at 0.1 pM [2] of the same substance?
A: 14.8% and 10.9%

Q: And the % cytotoxicity of CD19+ target cells, FIG. 68B, switch at 1 pM [2]?
A: 36.7% and 37.8%

Q: And the % cytotoxicity of CD19+ target cells, FIG. 68B, switch at 10 pM [2]?
A: 59% and 46.7%

Q: What about the % cytotoxicity of CD19+ target cells, FIG. 68B, switch at 100 pM [2] of the same substance?
A: 57.9%

Q: What about the % cytotoxicity of CD19+ target cells, FIG. 68B, switch at 1000 pM [2] of the same substance?
A: 55.8%

Q: What about the % cytotoxicity of CD19+ target cells, FIG. 68B, switch at 10000 pM [2] of the same substance?
A: 68.6%

Q: And the % cytotoxicity of CD19+ target cells, FIG. 68A, switch at 0.01 pM [3]?
A: 24% and 29.5%

Q: What about the % cytotoxicity of CD19+ target cells, FIG. 68A, switch at 0.1 pM [3] of the same substance?
A: 39.3% and 45.7%

Q: And the % cytotoxicity of CD19+ target cells, FIG. 68A, switch at 1 pM [3]?
A: 60.1%

Q: What about the % cytotoxicity of CD19+ target cells, FIG. 68A, switch at 10 pM [3] of the same substance?
A: 56.1% and 67.7%

Q: What about the % cytotoxicity of CD19+ target cells, FIG. 68A, switch at 100 pM [3] of the same substance?
A: 74.3% and 69.3%

Q: What about the % cytotoxicity of CD19+ target cells, FIG. 68A, switch at 1000 pM [3] of the same substance?
A: 84.8%

Q: And the % cytotoxicity of CD19+ target cells, FIG. 68A, switch at 10000 pM [3]?
A: 73.6% and 76.9%

Q: And the % cytotoxicity of CD19+ target cells, FIG. 68A, switch at 1.00E-04 pM [3]?
A: 6.29%

Q: And the % cytotoxicity of CD19+ target cells, FIG. 68B, switch at 0.01 pM [3]?
A: 1.9% and 8.37%

Q: And the % cytotoxicity of CD19+ target cells, FIG. 68B, switch at 0.1 pM [3]?
A: 10.9% and 10.4%

Q: What about the % cytotoxicity of CD19+ target cells, FIG. 68B, switch at 1 pM [3] of the same substance?
A: 39.4% and 32.9%

Q: What about the % cytotoxicity of CD19+ target cells, FIG. 68B, switch at 10 pM [3] of the same substance?
A: 63.2% and 68.1%

Q: What about the % cytotoxicity of CD19+ target cells, FIG. 68B, switch at 100 pM [3] of the same substance?
A: 69.4% and 61.2%

Q: And the % cytotoxicity of CD19+ target cells, FIG. 68B, switch at 1000 pM [3]?
A: 72.5% and 63.6%

Q: What about the % cytotoxicity of CD19+ target cells, FIG. 68B, switch at 10000 pM [3] of the same substance?
A: 69.1% and 66.8%

Q: And the % cytotoxicity of CD19+ target cells, FIG. 68A, switch at 0.01 pM [4]?
A: 26.7% and 38.4%

Q: What about the % cytotoxicity of CD19+ target cells, FIG. 68A, switch at 0.1 pM [4] of the same substance?
A: 49% and 60.5%

Q: And the % cytotoxicity of CD19+ target cells, FIG. 68A, switch at 1 pM [4]?
A: 51% and 75.3%

Q: And the % cytotoxicity of CD19+ target cells, FIG. 68A, switch at 10 pM [4]?
A: 62.1% and 75.5%

Q: And the % cytotoxicity of CD19+ target cells, FIG. 68A, switch at 100 pM [4]?
A: 69.6% and 80.5%

Q: What about the % cytotoxicity of CD19+ target cells, FIG. 68A, switch at 1000 pM [4] of the same substance?
A: 80.6% and 99.8%

Q: And the % cytotoxicity of CD19+ target cells, FIG. 68A, switch at 10000 pM [4]?
A: 93.1% and 100%

Q: And the % cytotoxicity of CD19+ target cells, FIG. 68A, switch at 1.00E-03 pM [4]?
A: 10.3% and 25.2%

Q: What about the % cytotoxicity of CD19+ target cells, FIG. 68B, switch at 0.0001 pM [4] of the same substance?
A: 3.26% and 17%

Q: And the % cytotoxicity of CD19+ target cells, FIG. 68B, switch at 0.001 pM [4]?
A: 19.6%

Q: What about the % cytotoxicity of CD19+ target cells, FIG. 68B, switch at 0.01 pM [4] of the same substance?
A: 17.4%

Q: What about the % cytotoxicity of CD19+ target cells, FIG. 68B, switch at 0.1 pM [4] of the same substance?
A: 15%

Q: What about the % cytotoxicity of CD19+ target cells, FIG. 68B, switch at 1 pM [4] of the same substance?
A: 47.4% and 43.2%

Q: And the % cytotoxicity of CD19+ target cells, FIG. 68B, switch at 10 pM [4]?
A: 64.6% and 70.1%

Q: And the % cytotoxicity of CD19+ target cells, FIG. 68B, switch at 100 pM [4]?
A: 60.7% and 67.6%

Q: What about the % cytotoxicity of CD19+ target cells, FIG. 68B, switch at 1000 pM [4] of the same substance?
A: 70.4%

Q: And the % cytotoxicity of CD19+ target cells, FIG. 68B, switch at 10000 pM [4]?
A: 72.7% and 75.4%

Q: And the % cytotoxicity of CD19+ target cells, FIG. 68A, switch at 0.01 pM [5]?
A: 21%

Q: What about the % cytotoxicity of CD19+ target cells, FIG. 68A, switch at 0.1 pM [5] of the same substance?
A: 46.4% and 33.9%

Q: And the % cytotoxicity of CD19+ target cells, FIG. 68A, switch at 1 pM [5]?
A: 58.2% and 56.6%

Q: And the % cytotoxicity of CD19+ target cells, FIG. 68A, switch at 10 pM [5]?
A: 58.9% and 48.9%

Q: What about the % cytotoxicity of CD19+ target cells, FIG. 68A, switch at 100 pM [5] of the same substance?
A: 70.5% and 71.3%

Q: And the % cytotoxicity of CD19+ target cells, FIG. 68A, switch at 1000 pM [5]?
A: 83.2%

Q: What about the % cytotoxicity of CD19+ target cells, FIG. 68A, switch at 10000 pM [5] of the same substance?
A: 85.7% and 72%

Q: What about the % cytotoxicity of CD19+ target cells, FIG. 68B, switch at 0.0001 pM [5] of the same substance?
A: 2%

Q: What about the % cytotoxicity of CD19+ target cells, FIG. 68B, switch at 0.001 pM [5] of the same substance?
A: 9.17%

Q: What about the % cytotoxicity of CD19+ target cells, FIG. 68B, switch at 0.01 pM [5] of the same substance?
A: 1.15%

Q: And the % cytotoxicity of CD19+ target cells, FIG. 68B, switch at 0.1 pM [5]?
A: 25.4%

Q: And the % cytotoxicity of CD19+ target cells, FIG. 68B, switch at 1 pM [5]?
A: 28.5% and 27.5%

Q: And the % cytotoxicity of CD19+ target cells, FIG. 68B, switch at 10 pM [5]?
A: 58.4%

Q: And the % cytotoxicity of CD19+ target cells, FIG. 68B, switch at 100 pM [5]?
A: 60.8% and 65.8%

Q: What about the % cytotoxicity of CD19+ target cells, FIG. 68B, switch at 1000 pM [5] of the same substance?
A: 73.4% and 71.5%

Q: And the % cytotoxicity of CD19+ target cells, FIG. 68B, switch at 10000 pM [5]?
A: 64.2% and 55.2%
